Variants at the floor of the assay were thinned out.
B1: TPR 5TU (parent)
chain: GGAUCUUCUCGAUCUAACAAAAAAGACAAAUCUGCCACAAAGCUUGAGAGCAUCUUCGGAUGCAGAGGCGGCAGCCUUCGGUGGCGCGAUAGCGCCAACGUUCUCAACUAUGACACGCAAAACGCGUGCUCCGUUGAAUGGAGUUUAUCAUG

Variants of: B1
Assay: polymerase ribozyme fitness, log enrichment relative to wild type (log ratio); higher = more active; in vitro selection for triplet polymerase activity
Summary of the method: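 Mutant libraries of both subunits of a heterodimeric triplet polymerase ribozyme were PCR-built, transcribed, and selected once in triplicate, with frozen incubation at −7 °C and capture of gel-excised extended constructs on streptavidin beads before RT-PCR. Illumina sequencing of input and output libraries was filtered to genotypes with ≥10 input reads and ≥1 read per output. Fitness is the logarithm of genotype enrichment over wild-type enrichment, using inverse-variance-weighted replicate averages. The logarithm is base 2.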

Point of comparison: C85A G94A G128C, “polymerase ribozyme fitness (log ratio)” value -3.21. Against it:
- C85U A89G A106G G117A G126C G143C — lower, ≤ -4.2
- C85A — higher, -1.28
- C85G — higher, -2.05
- C85U — higher, -0.513
- G84A U144A — higher, -1.65
- G84A U144G — higher, 0.394
- G84U A138U — lower, ≤ -4.2
- C85A C96U C132A — lower, -3.67
- C85U A97U A115U — higher, -2.7
- G84U U130A U145C — lower, -4.13
- C85G C96U C116A A137C — lower, ≤ -4.2
- G84U A120G — higher, -2.16
- C85U A98C G124C — higher, -1.37
- C85U C95G C108U — lower, ≤ -4.2
- C85G U109G U144C — lower, ≤ -4.2
- C85U C96U — higher, -0.746
- C85G U102G C129U A150C — lower, ≤ -4.2
- G84A A115U — higher, -2.62
- G84A A115C — higher, -0.594
- C85A G152U — lower, -3.5
- C85U G92U C125A G136C — lower, -3.55
- C85A G94A — higher, -1.74
- G83U U102C — higher, -1.16
- C85G U144G — higher, -1.75
- C85U C116U G141A — higher, -2.95
- G84A G88U C96G A113U U144G — lower, ≤ -4.2
- G84C C125G — higher, -1.94
- G84C A115C C116U — lower, -3.98
- C85A U135C — higher, -2.15
- C85A U135A — higher, -0.589
- C85U C87U C108U C114A — lower, ≤ -4.2
- C85A C99A — higher, -2.8
- C85A C99G — lower, -3.49
- C85A A107U A147C U151C — lower, ≤ -4.2
- C85A G126A — higher, -1.32
- G84U C99G U148A — lower, ≤ -4.2
- C85G G94U C118G — higher, -0.928
- G84U A142G — within 0.2 log units, -3.27
- C85U C125G G136A — higher, -0.203
- C85G C149U — higher, -2.46
- G84A G133C G143U — lower, -3.92
- G84U U102G — lower, -4.16
- G84A C105U — higher, 0.191
- G84A A122G G140A G141A — lower, ≤ -4.2
- C85G C95A — higher, -1.68
- G84U C116U G141C — lower, -4.04
- C85G U135C — lower, -3.66
- C85G U135A — within 0.2 log units, -3.38
- C85A A106G — higher, -2.01
- G84A A120C C125U G136A — higher, 0.204
- C85G A147C — higher, -1.67
- C85G A147U — higher, -0.872
- G84A A110U — within 0.2 log units, -3.36
- C85G A122C — higher, -1.98
- G84A G136A U148C — higher, -1.66
- G83U U146A — higher, -1.19
- G84A A142C — higher, -1.65
- G84A A142G — higher, -1.82
- C85G G143U — lower, -3.79
- G84A A147C — higher, -0.0528
- G83U G100U C103A C131U — lower, ≤ -4.2
- C85U C95U G133A — lower, -4
- C85G A106C G141C — lower, -3.91
- C85U C95U — higher, -1.72
- G83U G94U C116A C132G G140U — within 0.2 log units, -3.11
- G84U C87G G88C G143C — lower, ≤ -4.2
- C85A G92C G141A G143U — lower, ≤ -4.2
- G84A A89G G100C A115G C125U — lower, ≤ -4.2
- G84A U127C U139G A142C — lower, -3.93
- G84A C96A A119U — higher, -1.11
- C85A U109G C118U — higher, -1.54
- G84U G117A — higher, -2
- C85U C99G G136U — higher, -2.88
- G84U C105A U139C — lower, -4.17
- C85G G128C — lower, ≤ -4.2
- C85U A98G — higher, -0.688
- C85U C93G A150G — lower, ≤ -4.2
- C85U A89U A110C A121U G136A U146C — lower, ≤ -4.2
- G84A A98G C105A — higher, -1.05
- G84A A89G — higher, -1.6
- C85A C116A — higher, 0.744
- G83U G117U — higher, -0.498
- C85A C87U A119U — lower, ≤ -4.2
- C85U C99G G126A U135G — lower, ≤ -4.2
- C85U A89U A119C — higher, -0.895
- G83U G128U — within 0.2 log units, -3.22
- C85A G124U — higher, -1.9
- C85A G124C — higher, -1.69
- C85G C125A C131A C149U — lower, ≤ -4.2
- G84U G92C A121U — higher, -2.94
- C85U C87U — higher, 0.308
- G84C A115G — higher, -2.49
- C85A C96A — higher, -2.22
- C85U A91U C95G G140U — lower, ≤ -4.2
- G84A G133C G141C — higher, -2.83
- C85A A98G C116U A120C A147U — higher, 0.389
- C85A U144C — higher, -0.693
- C85A U144A — higher, -0.579
- C85A U144G — higher, -0.777
- C85U C103U — higher, -2.17
- C85A G112U — lower, ≤ -4.2
- G84A U102A — higher, -1.01
- C85A U127A — lower, -3.68
- G83U U151A — lower, ≤ -4.2
- C85G C125A U130C — higher, -1.52
- G84A C93U C108G A137U — lower, ≤ -4.2
- G84A C103G C149U — within 0.2 log units, -3.35
- C85A A98U C108A U134G — lower, ≤ -4.2
- C85G G126A U146A — higher, -1.79
- C85A C93U A119C G126U U127A — lower, ≤ -4.2
- G84A G88U — lower, -3.57
- G84A G88A — lower, ≤ -4.2
- C85G C114U — lower, -3.49
- G84U C93G — lower, ≤ -4.2
- G84A U135A — higher, -1.69
- C85G G86A — lower, -3.83
- G84U G133C — lower, -3.53
- C85A G136C — lower, -4.19
- G84A G136A — higher, -0.313
- G84A G136C — within 0.2 log units, -3.25
- C85A G94C A121C — higher, -1.84
- C85U C96U A98G A150G — higher, -2.21
- G84C C85A G92U C96A A97C C105U — higher, -2.61
- G84U A89G — lower, -3.82
- C85A C123U — higher, -1.2
- G84U G141A — higher, -1.4
- G83U G112U — lower, -4
- C85U A91C U102C — lower, ≤ -4.2
- C85U C129U — higher, -0.359
- G84U C99G C103U — lower, ≤ -4.2
- C85A C125A — higher, -2.27
- C85A C125U — higher, -1.7
- G84A U109G — higher, -1.95
- G84U U104G — higher, -2.26
- G84U A97U — higher, -1.54
- C85G A142C — higher, -2.98
- G83U G100U — lower, -3.9
- G84A C96G — higher, -0.627
- G84C C85G — lower, -4.03
- C85A A150G — higher, -2.41
- C85A A150C — lower, ≤ -4.2
- C85U G94C — higher, -0.28
- C85A C114U G143A — lower, ≤ -4.2
- G84U A91G U144G — higher, -1.53
- C85G C116U — higher, -1.66
- C85G C125U — within 0.2 log units, -3.35
- G84U G126A — higher, -1.87
- G84U G126U — higher, -1.45
- C85A C95G A115G — lower, -3.81
- C85A A122G — higher, -2.54
- C85A C96U G128A — lower, -4.19
- G84U U144A — within 0.2 log units, -3.22
- G84U C87G U90C C96U U145G — lower, ≤ -4.2
- G84C A142G — within 0.2 log units, -3.03
- C85A A91G — within 0.2 log units, -3.36
- G84A A106G A142C — higher, -0.922
- G84A U148C — higher, -2.65
- G84A U148A — higher, -2.74
- C85U A89U C105U — higher, 0.517
- C85U A89U C105G — higher, -1.55
- C85A U109G — higher, -1.33
- G84U G92A — lower, ≤ -4.2
- C85G G141C — within 0.2 log units, -3.06
- G84U G94U — higher, -2.37
- G84U C87A C116U — lower, ≤ -4.2
- G84U U101G U134G — lower, -3.87

— the RNAGym collection of RNA variant scans (doi:10.1073/pnas.2313332121)
